Results from patent US20240368289A1 (LAEKNA THERAPEUTICS SHANGHAI, published 2024).
Changes are numbered by the printed parent chain. Each block holds one binder with its values, some of them ahead of it.

Key:
[1] = biological target: T1, ACVR2A mouse Fc fusion protein (mouse, UniProt P27037 20-135 (human entry), limits assumed); test: Activin A competitive ELISA: ACVR2A mouse Fc fusion coated, IgG titrated, then 16.7 nM Activin A added; bound Activin A detected (luminescence)
T1 construct: not shown: mouse Fc
T1 sequence (P27037 20-135 limits assumed): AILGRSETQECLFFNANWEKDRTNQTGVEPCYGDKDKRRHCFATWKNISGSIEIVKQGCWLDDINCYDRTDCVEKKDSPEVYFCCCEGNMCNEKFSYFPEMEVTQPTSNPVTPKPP
Procedure: (§1) 2.3 Activin A Competitive ELISA. To select ACVR2A hits that could block the interaction between ACVR2A and its ligand Activin A, a competitive ELISA assay was set up. 30 μL 4.17 nM ACVR2A mouse Fc fusion protein was coated in 384-well HB plate at 4° C. overnight following blocking with 5% BSA. Anti-ACVR2A Fab fragment or antibodies with different concentrations were added to the plate and incubated on an orbital shaker at room temperature for 1 hours to allow binding of the antibodies. […] After 5 times washing with TBST, 30 μl of 20 nM goat anti-activin A polyclonal antibody (Abcam, ab7153) in blocking buffer was added into plate and incubated at room temperature for 1 hour. Last, 30 μl of anti-goat IgG-HRP (Beyotime, A0181) in blocking buffer (1:500 dilution) was added to plate for another 30 min incubation following washing step. Luminescence signal was collected on Tecan infinite M1000 after adding 30 μl ECL substrate.

[2] = biological target: ACVR2A on HEK293T-B1 cells (ACVR2B knockout stable cell line) (UniProt P27037 20-513); test: cell-based or functional assay
Chain of ACVR2A on HEK293T-B1 cells (ACVR2B knockout stable cell line) (P27037 20-513): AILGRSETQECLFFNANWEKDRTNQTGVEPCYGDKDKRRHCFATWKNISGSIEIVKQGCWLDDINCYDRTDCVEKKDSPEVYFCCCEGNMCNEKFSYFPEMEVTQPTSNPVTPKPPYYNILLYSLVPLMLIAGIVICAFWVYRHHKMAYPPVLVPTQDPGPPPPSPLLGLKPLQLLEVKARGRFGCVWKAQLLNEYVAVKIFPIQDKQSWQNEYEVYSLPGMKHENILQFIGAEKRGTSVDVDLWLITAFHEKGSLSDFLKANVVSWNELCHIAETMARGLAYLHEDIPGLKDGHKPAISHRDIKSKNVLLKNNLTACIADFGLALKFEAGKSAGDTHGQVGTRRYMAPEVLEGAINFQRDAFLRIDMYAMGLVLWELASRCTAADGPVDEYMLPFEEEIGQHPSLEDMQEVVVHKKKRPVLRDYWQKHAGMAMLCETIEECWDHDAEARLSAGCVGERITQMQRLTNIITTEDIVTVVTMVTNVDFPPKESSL

[3] = biological target: T2, recombinant protein comprising the human ACVR2A extracellular domain (ECD) fused to the human IgG1 Fc region (human, UniProt P27037 20-135); test: SPR, Biacore; format and antigen construct not given
T2 construct: extracellular domain; also called ACVR2A-Fc; ACVR2A-FC; not shown: human IgG1 Fc region
T2 sequence (P27037 20-135): as the sequence (P27037 20-135 limits assumed) above

[4] = biological target: T1, ACVR2A mouse Fc fusion protein; test: Activin A competitive ELISA; ACVR2A mouse Fc coated, antibody titrated, competitor activin A
Procedure: as §1

[5] = biological target: T2, recombinant protein comprising the …; test: SPR, Biacore 3000 (1st test); ACVR2A-Fc captured by anti-human Fc, Fab injected
Description: (§2) 2.2 Surface Plasmon resonance (SPR) measurements and affinity analysis by anti-human Fc capture format. After affinity panning, output-3 (03) of CDRH1 library were screened for binding ability by Fab ELISA and followed by NGS DNA sequencing. Based on binding Elisa and sequence abundance from NGS data, 11 clones were select for SPR analysis. Approximately 100-800 resonance units (RU) of antigen ACVR2A, was captured by anti-human Fc immobilized on a channel of a CM5 chip with an activated amine group. After immobilization, Fab antibodies were injected into the channels at 25° C. in HBS-EP buffer, with a flow rate of 30 μL/min, 1 min. When the data collection was finished in each cycle, the sensor surface was regenerated using 80 mM NaOH with a flow rate of 30 μL/min, 15 sec and reused chip in next cycle. After subtraction of reference surface and buffer injection, curve was locally fitted with BIA evaluation version 4.1 using a 1:1 Langmuir binding mode.
(§3) The affinity of selected 11 anti-ACVR2A monoclonal antibody clones were determined on Biacore®3000 and Biacore®8000 as shown in Table 4 below.

[6] = biological target: T2, recombinant protein comprising the …; test: SPR, Biacore 8000 (2nd test); ACVR2A-Fc captured by anti-human Fc, Fab injected
Description: as §2, §3

[7] = biological target: T2, recombinant protein comprising the …; test: SPR, Biacore 3000 (1st test); ACVR2A-Fc captured by anti-human Fc, Fab injected; 1st test (Biacore 3000)
Description: as §2, §3

B1: 366 (antibody, V domains shown)
VH: QVQLVQSGAEVKKPGSSVKVSCKASGFQFRTSLISWVRQAPGQGLEWMGGLIPIFGTANYAQKFQGRVTITADESTSTAYMELSSLRSEDTAVYYCVKDLTWTNLGLDIWGQGTMVTVSS
VL: EIVMTQSPSSLSASVGDTVTITCRASQGASQWLKWYQQKPGKAPRLLIYAASSLHSGVPSRFSGSGSGTHFTLTISSLQPEDFATYFCQQSYSTPFTFGPGTKLEIK
- IC50 (read off the curve) [1]: ~9 nM

B2: IgG NGS-1 (CDR shuffling) (antibody, V domains shown)
VH: B1 VH
VL: EIVMTQSPSSLSASVGDTVTITCRASQGVSRWLAWYQQKPGKAPRLLIYSAASSLYSGVPSRFSGSGSGTHFTLTISSLQPEDFATYFCQQSYSTPFTFGPGTKLEIK
notes: IgG: human IgG1 / kappa from pFUSE vectors, made in 293F cells
- IC50 (M), HEK293T-B1 CAGA-Luc, Activin A [2]: 3.28e-09 M
- IC50 (M), HEK293T-B1 CAGA-Luc, GDF8 [2]: 2.42e-10 M
- Kd [3]: 0.638 nM
- koff [3]: 0.000118 s⁻¹
- kon [3]: 185000 M⁻¹ s⁻¹
- IC50 [4]: 1.86 nM

B4: hit 21343 (IgG) (antibody, V domains shown)
VH: B1 VH with F27P, Q28R, R30Q, T31D, S32L, L33S, L51I, F55Y
VL: B1 VL with A29V, Q31R, K34A, A50N, S52R, H55F
notes: as for B2
- IC50 (M), HEK293T-B1 CAGA-Luc, Activin A [2]: 9.07e-09 M
- IC50 (M), HEK293T-B1 CAGA-Luc, GDF8 [2]: 1.64e-09 M
- Kd [3]: 0.43 nM
- koff [3]: 4.51e-05 s⁻¹
- kon [3]: 105000 M⁻¹ s⁻¹
- IC50 [4]: 4.74 nM

B5: clone A (Fab) (Fab, V domains shown)
VH: B1 VH with F27G, R30Y, T31H, L33R, L51I, F55Y
VL: B1 VL with A29V, Q31R, K34A
notes: Fab made in E. coli TG1 and purified on Ni-NTA
- Kd [5]: 5.29 nM
- koff [5]: 0.00227 s⁻¹
- Kd [6]: 5.35 nM
- koff [6]: 0.00257 s⁻¹
- kon [6]: 481000 M⁻¹ s⁻¹
- kon [7]: 429000 M⁻¹ s⁻¹

B8: hit 21169 (IgG) (antibody, V domains shown)
VH: B1 VH
VL: B1 VL with A29V, Q31R, K34A, S52Q, S53G, H55S
notes: as for B2
- IC50 (M), HEK293T-B1 CAGA-Luc, Activin A [2]: 2.66e-09 M
- IC50 (M), HEK293T-B1 CAGA-Luc, GDF8 [2]: 4.99e-10 M
- Kd [3]: 0.663 nM
- koff [3]: 0.000238 s⁻¹
- kon [3]: 359000 M⁻¹ s⁻¹
- IC50 [4]: 5.3 nM

The remaining lines, values ahead:

- IC50 (M), HEK293T-B1 CAGA-Luc, Activin A [2]: 3.64e-09 M
- IC50 (M), HEK293T-B1 CAGA-Luc, GDF8 [2]: 1.65e-09 M
- Kd [3]: 0.153 nM
- koff [3]: 7.91e-06 s⁻¹
- kon [3]: 51600 M⁻¹ s⁻¹
- IC50 [4]: 4.15 nM
B3: hit 21366 (IgG) (antibody, V domains shown)
VH: B1 VH with F27P, Q28R, R30Q, T31D, S32L, L33S, L51I, F55Y
VL: B1 VL with A29V, Q31R, K34A, A50W, S52A, S53H, H55Q
notes: as for B2

- IC50 (M), HEK293T-B1 CAGA-Luc, Activin A [2]: 1.78e-09 M
- IC50 (M), HEK293T-B1 CAGA-Luc, GDF8 [2]: 6.51e-10 M
- Kd [3]: 0.211 nM
- koff [3]: 8.07e-05 s⁻¹
- kon [3]: 382000 M⁻¹ s⁻¹
- IC50 [4]: 5.13 nM
B6: hit 21155 (IgG) (antibody, V domains shown)
VH: B1 VH
VL: B1 VL with A29V, Q31R, K34A, A50G, S53P, H55S
notes: as for B2

- IC50 (M), HEK293T-B1 CAGA-Luc, Activin A [2]: 6.24e-09 M
- IC50 (M), HEK293T-B1 CAGA-Luc, GDF8 [2]: 1.6e-09 M
- Kd [3]: 0.172 nM
- koff [3]: 5.44e-05 s⁻¹
- kon [3]: 316000 M⁻¹ s⁻¹
- IC50 [4]: 4.83 nM
B7: hit 21341 (LA01) (IgG) (antibody, V domains shown)
VH: B1 VH with F27P, Q28R, R30Q, T31D, S32L, L33S, L51I, F55Y
VL: B1 VL with A29V, Q31R, K34A, A50S, S52R, S53A
notes: IgG: human IgG1 / kappa from pFUSE vectors, made in 293F cells; also called ACVR2A Ab LA01
